Measurements as given in PMC8188299.

Target: Recombinant hACE2 protein fused with mFc, residues 19-740 (human) (UniProt Q9BYF1)
Test: SPR

UniProt Q9BYF1, sequence (Q9BYF1 19-740): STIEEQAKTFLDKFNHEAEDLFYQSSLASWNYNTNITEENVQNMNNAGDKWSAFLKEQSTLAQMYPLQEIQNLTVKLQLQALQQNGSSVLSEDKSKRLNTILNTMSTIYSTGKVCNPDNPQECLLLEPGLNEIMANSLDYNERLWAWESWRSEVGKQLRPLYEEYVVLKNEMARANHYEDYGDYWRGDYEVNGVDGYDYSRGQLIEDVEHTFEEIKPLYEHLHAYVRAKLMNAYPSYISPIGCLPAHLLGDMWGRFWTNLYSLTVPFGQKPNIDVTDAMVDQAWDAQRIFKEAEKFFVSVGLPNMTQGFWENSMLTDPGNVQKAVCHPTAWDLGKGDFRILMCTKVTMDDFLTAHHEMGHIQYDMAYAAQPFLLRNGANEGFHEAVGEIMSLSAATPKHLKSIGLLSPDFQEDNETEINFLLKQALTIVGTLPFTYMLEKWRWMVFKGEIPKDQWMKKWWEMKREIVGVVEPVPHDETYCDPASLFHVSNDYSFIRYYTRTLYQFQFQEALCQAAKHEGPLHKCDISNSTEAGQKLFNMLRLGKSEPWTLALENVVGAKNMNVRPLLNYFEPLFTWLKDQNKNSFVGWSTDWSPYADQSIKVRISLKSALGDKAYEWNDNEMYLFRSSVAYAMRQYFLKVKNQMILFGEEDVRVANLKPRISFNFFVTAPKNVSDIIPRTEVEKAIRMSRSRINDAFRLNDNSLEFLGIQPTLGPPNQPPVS

Substance: Recombinant RsYN04 RBD protein, residues 309-527 (domain or fragment)
- Kd: 15.9 µM
